Measured values as given in patent US20260193348A1 (ANTENGENE BIOLOGICS, published 2026).
Numbering of substitutions follows the chain as printed. In names and notes the source's numbering stands.

B1: Bis-40E9-L2H3 (bispecific antibody, human IgG1, kappa, L234A L235A)
heavy 1: not shown
heavy 2: EVQLVQSGAEVKKPGASVKVSCKASGYTFTSYVIHWVRQAPGQGLEWMGYFNPYNDGTKYNEEFKGRVTLTSDKSTSTAYMELRSLRSDDTAVYYCARGGVRRYFDVWGQGTTVTVSSASTKGPSVFPLAPSSKSTSGGTAALGCLVKDYFPEPVTVSWNSGALTSGVHTFPAVLQSSGLYSLSSVVTVPSSSLGTQTYICNVNHKPSNTKVDKKVEPKSCGGGGSGGGGSEVQLVQSGAEVKKPGSSVKVSCKASGYTFSSYVIHWVRQAPGQCLEWMGYINPYNDVIKYNEKFKGRVTLTSDKSTSTAYMELSSLRSEDTAVYYCARDSYYSYDGFAYWGQGTLVTVSSGGGGSGGGGSGGGGSGGGGSEIVLTQSPDFQSVTPKEKVTITCSASSSVSYMHWYQQKPDQSPKRLIYDTSKLASGVPSRFSGSGSGTDFTLTINSLEAEDAATYYCQQWSSNPPTFGCGTKVEIKGGGGSGGGGSDKTHTCPPCPAPEAAGGPSVFLFPPKPKDTLMISRTPEVTCVVVDVSHEDPEVKFNWYVDGVEVHNAKTKPREEQYNSTYRVVSVLTVLHQDWLNGKEYKCKVSNKALPAPIEKTISKAKGQPREPQVCTLPPSREEMTKNQVSLSCAVKGFYPSDIAVEWESNGQPENNYKTTPPVLDSDGSFFLVSKLTVDKSRWQQGNVFSCSVMHEALHNHYTQKSLSLSPGK
light: DIQMTQSPSSLSASVGDRVTITCRASQDIGSNLNWLQQKPGKAIKRLIYATFGLDSGVPSRFSGSRSGTDFTLTISSLQPEDFATYYCQQYASFPYTFGGGTKVEIKRTVAAPSVFIFPPSDEQLKSGTASVVCLLNNFYPREAKVQWKVDNALQSGNSQESVTEQDSKDSTYSLSSTLTLSKADYEKHKVYACEVTHQGLSSPVTKSFNRGEC
notes: Fab-scFv-Fab, LALA; also called humanized 2+1 bispecific antibody with scFv 40E9-L2H3
B2: Bis-40E9-L2H1 (bispecific antibody)
heavy: EVQLVQSGAEVKKPGASVKVSCKASGYTFTSYVIHWVRQAPGQGLEWMGYFNPYNDGTKYNEEFKGRVTLTSDKSTSTAYMELRSLRSDDTAVYYCARGGVRRYFDVWGQGTTVTVSS
heavy (part 1 of 2): B2 heavy
heavy (part 2 of 2): GGGGSGGGGSEVQLVQSGAEVKKPGSSVKVSCKASGGTFSSYVIHWVRQAPGQCLEWMGYINPYNDVIKYNEKFKGRVTITADKSTSTAYMELSSLRSEDTAVYYCARDSYYSYDGFAYWGQGTLVTVSSGGGGSGGGGSGGGGSGGGGSEIVLTQSPDFQSVTPKEKVTITCSASSSVSYMHWYQQKPDQSPKRLIYDTSKLASGVPSRFSGSGSGTDFTLTINSLEAEDAATYYCQQWSSNPPTFGCGTKVEIKGGGGSGGGGS
light: DIQMTQSPSSLSASVGDRVTITCRASQDIGSNLNWLQQKPGKAIKRLIYATFGLDSGVPSRFSGSRSGTDFTLTISSLQPEDFATYYCQQYASFPYTFGGGTKVEIK
notes: Fab-scFv-Fab (2+1), LALA; not shown: CH1; CL; CH2-CH3 with L234A, L235A; heavy chain constant region with L234A, L235A
B3: Bis-40E9-L2H3-G106A.H (bispecific antibody)
heavy: B2 heavy
heavy (part 1 of 2): B2 heavy
heavy (part 2 of 2): B2 heavy (part 2 of 2) with G37Y, I80L, A82S, G116A
light: B2 light
notes: as for B2
B4: Bis-40E9-L2H3-D99E.H (bispecific antibody)
heavy: B2 heavy
heavy (part 1 of 2): B2 heavy
heavy (part 2 of 2): B2 heavy (part 2 of 2) with G37Y, I80L, A82S, D109E
light: B2 light
notes: as for B2
B5: Bis-40E9-L2H4 (bispecific antibody)
heavy: B2 heavy
heavy (part 1 of 2): B2 heavy
heavy (part 2 of 2): B2 heavy (part 2 of 2) with G37Y, M58I, V78A, I80L, A82S
light: B2 light
notes: as for B2
B6: Bis-40E9-L3H1 (bispecific antibody)
heavy: B2 heavy
heavy (part 1 of 2): B2 heavy
heavy (part 2 of 2): B2 heavy (part 2 of 2) with L196W, F220Y
light: B2 light
notes: as for B2
B7: Bis-40E9-L2H16 (bispecific antibody)
heavy 1: not shown
heavy 2: B1 heavy 2 with S262D
light: B1 light
notes: Fab-scFv-Fab format with LALA mutations; copies: 1 + 1 + 2
B8: Bis-40E9-L2H14 (bispecific antibody)
heavy 1: not shown
heavy 2: B1 heavy 2 with D330E
light: B1 light
notes: as for B7

The binders below were run against T1, GPRC5D (G-protein coupled receptor family C group 5 member D), human, on multiple myeloma cell lines (human, UniProt Q9NZD1 1-345) (assay: cell-based or functional assay).
T1 sequence (Q9NZD1 whole entry): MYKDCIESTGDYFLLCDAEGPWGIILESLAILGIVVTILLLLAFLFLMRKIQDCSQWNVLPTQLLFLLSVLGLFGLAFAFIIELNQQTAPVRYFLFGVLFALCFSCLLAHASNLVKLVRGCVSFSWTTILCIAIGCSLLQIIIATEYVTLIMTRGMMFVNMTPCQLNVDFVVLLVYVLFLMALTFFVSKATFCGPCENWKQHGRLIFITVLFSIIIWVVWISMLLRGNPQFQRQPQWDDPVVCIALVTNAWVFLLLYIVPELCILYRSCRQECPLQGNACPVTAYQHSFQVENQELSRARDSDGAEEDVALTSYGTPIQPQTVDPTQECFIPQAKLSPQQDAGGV

EC50 (nM), luciferase assay, MM.1S [nM] | Top (RLU), luciferase assay, MM.1S [RLU] | Top (RLU), luciferase assay, MOLP-8 [RLU] | EC50 (nM), luciferase assay, L363 [nM] | EC50 (nM), luciferase assay, MOLP-8 [nM] | EC50 (nM), luciferase assay, RPMI8226 [nM] | Top (RLU), luciferase assay, L363 [RLU] | Top (RLU), luciferase assay, RPMI8226 [RLU] | Binder
0.0898 | 1940 | 221 | – | – | – | – | – | B1
0.18 | 2510 | 1190 | 0.258 | 0.00654 | 1.05 | 898 | 261 | B2
0.268 | 2910 | 262 | 0.187 | 0.116 | 1.58 | 277 | 101 | B3
0.0719 | 1720 | 118 | 0.19 | 0.906 | 0.878 | 584 | 113 | B4
0.0592 | 1700 | 213 | 0.206 | 0.000513 | – | 1430 | – | B5
0.0332 | 1710 | 150 | 1.71 | 0.072 | – | 2760 | – | B6

Each binder was assayed against T2, GPRC5D on MM.1S cells (human, UniProt Q9NZD1 1-345) (assay: cell-based or functional assay).
T2 sequence (Q9NZD1 whole entry): as above

Binder | Ratio of IC50 (relative to ATG-Bis-40E9), MM.1S cytotoxicity [ratio] | Ratio of Top cytotoxicity (relative to ATG-Bis-40E9), MM.1S cytotoxicity [ratio]
B7 | 4.93 | 0.98
B8 | 10.4 | 0.98

These binders were tested against T3, CD3 (Cluster of Differentiation 3 protein), human, on T cells / Jurkat cells (human, UniProt P07766 23-207; P04234 22-171; P09693 23-182) (assay: FACS, Jurkat cells, antibody at 50 µg/ml).
T3 construct: whole, on cells; part of the TCR-CD3 complex; also called human CD3
T3 sequence (P07766 23-207, chain 1 of 3): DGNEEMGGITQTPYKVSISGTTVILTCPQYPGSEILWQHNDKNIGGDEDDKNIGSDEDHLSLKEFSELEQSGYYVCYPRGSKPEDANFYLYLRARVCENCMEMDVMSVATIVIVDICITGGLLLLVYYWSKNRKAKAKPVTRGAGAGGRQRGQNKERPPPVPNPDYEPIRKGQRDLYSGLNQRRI
T3 sequence (P04234 22-171, chain 2 of 3): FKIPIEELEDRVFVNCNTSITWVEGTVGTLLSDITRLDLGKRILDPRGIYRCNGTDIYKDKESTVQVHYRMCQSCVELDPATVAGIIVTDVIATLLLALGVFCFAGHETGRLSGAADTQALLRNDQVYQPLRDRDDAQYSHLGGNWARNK
T3 sequence (P09693 23-182, chain 3 of 3): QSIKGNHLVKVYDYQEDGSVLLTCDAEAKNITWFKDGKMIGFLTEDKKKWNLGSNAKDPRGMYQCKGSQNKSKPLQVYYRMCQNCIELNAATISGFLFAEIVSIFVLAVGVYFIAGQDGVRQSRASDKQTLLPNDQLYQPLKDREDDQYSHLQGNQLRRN
Description: (§1) The binding affinities of the generated humanized Fab-scFv-Fab bispecific antibodies were determined by FACS analysis. […] (a) Jurkat cells were washed by Staining Buffer (PBS+1% BSA) in round bottom 96-well plate. [0833] (b) Antibody dilutions and cells were added to each well, incubated at 4 degrees for 1 hour. [0834] (c) Cells were spined down at 300 g for 3 minutes, and the supernatants were discarded. [0835] (d) Cells were washed with Staining Buffer. […] (e) Step (d) was repeated and the cells were incubated for 0.5 hours at 4 degrees with secondary antibody in Staining Buffer. [0837] (f) After incubation, step (d)-(e) were repeated. […] (g) Staining Buffer was added and fluorescence signals were recorded by flow cytometry.

MFI (50 µg/ml) [MFI] | Binder
341 | B1
113 | B2
114 | B3
128 | B4
328 | B5
142 | B6

What follows are binders tested against T2, GPRC5D on MM.1S cells (assay: FACS on MM.1S cells).
How it was run: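 Binding to MM.1S cells measured by flow cytometry; cells incubated with antibody dilutions for 1 h at 4 degrees in PBS + 1% BSA, washed, then stained with secondary antibody for 0.5 h at 4 degrees before fluorescence read-out.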

Ratio of EC50 (relative to ATG-Bis-40E9) [ratio] | Ratio of Top MFI (relative to ATG-Bis-40E9) [ratio] | Binder
0.913 | 0.972 | B7
1.02 | 0.975 | B8

Each binder was assayed against T4, CD3 on Jurkat cells (UniProt P07766 23-207; P04234 22-171; P09693 23-182) (assay: FACS on Jurkat cells).
T4 construct: whole, on cells; On the cell, CD3 stands in the TCR-CD3 complex; also called cluster of differentiation 3
T4 sequence (P07766 23-207, chain 1 of 3): as the sequence (P07766 23-207, chain 1 of 3) above
T4 sequence (P04234 22-171, chain 2 of 3): as the sequence (P04234 22-171, chain 2 of 3) above
T4 sequence (P09693 23-182, chain 3 of 3): as the sequence (P09693 23-182, chain 3 of 3) above
Description: as §1
The binding affinities of the generated humanized Fab-scFv-Fab bispecific antibodies were determined by FACS analysis. The protocol for FACS analysis is identical to that described in Example 3.2, except that different test antibodies were used.

Ratio of EC50 (relative to ATG-Bis-40E9) [ratio] | Ratio of Top MFI (relative to ATG-Bis-40E9) [ratio] | Binder
2.97 | 0.62 | B7
2.31 | 0.83 | B8

Molecular target: T2, GPRC5D on MM.1S cells
Test: cell-based or functional assay
Remark: another data set of the same source

Ratio of EC50 (relative to ATG-Bis-40E9), luciferase assay on MM.1S [ratio] | Ratio of Top RLU (relative to ATG-Bis-40E9), luciferase assay on MM.1S [ratio] | Binder
6.02 | 0.84 | B7
5.77 | 0.81 | B8

Molecular target: T1, GPRC5D (G-protein coupled receptor …)
Test: cell-based or functional assay
Remark: another data set of the same source

Binder | IC50 (nM), T-Cell Dependent Cytotoxicity, MM.1S [nM] | IC50 (nM), T-Cell Dependent Cytotoxicity, MOLP-8 [nM] | IC50 (nM), T-Cell Dependent Cytotoxicity, RPMI8226 [nM] | Top (%), T-Cell Dependent Cytotoxicity, MM.1S [%] | Top (%), T-Cell Dependent Cytotoxicity, MOLP-8 [%] | Top (%), T-Cell Dependent Cytotoxicity, RPMI8226 [%]
B1 | 0.00571 | 0.00166 | 0.06 | 66.8 | 71.9 | 11.5
B2 | 0.0437 | 0.0069 | 0.356 | 56.3 | 58.3 | 25.9
B3 | 0.057 | 0.0068 | 4.04 | 67.4 | 54.3 | 5.69
B4 | 0.0244 | 0.00776 | 0.406 | 57.2 | 68.7 | 13.4
B5 | 0.0125 | 0.00239 | 0.381 | 69 | 63.9 | 20.4
B6 | 0.0203 | 0.00244 | 0.292 | 74.9 | 68.3 | 13.6
